Series [1] deals with Nc1ncnc2c1ncn2[C@@H]1O[C@H](COP(=O)(O)OP(=O)(O)OP(=O)(O)O)[C@@H](O)[C@H]1O. Description: purified protein, by the assay type. To be noted: 25.0 °C. The protocol:
(§1) Kinetics and thermal denaturation data were analysed by the nonlinear regression function of SigmaPlot 14.0 (SPSS Inc.). Thermal denaturation data were fitted to Eq. (1). Substrate saturation curves at a fixed concentration of the co-substrate were fitted to Eq. (2). Initial rate data at varying concentrations of HisZ were fitted to Eq. (3). The concentration of ATPPRT at any concentration of AbHisGS and AbHisZ was calculated according to Eq. (4). Histidine dose-response data were fitted to Eq. (5). Single-turnover data with WT-AbATPPRT isotopologues were fitted to Eq. (6). Plots of kcat ratios against relative viscosity were fitted to Eq. (7). Temperature-rate profile for AbHisGS was fitted to Eq. (8). Single-turnover data with R70A-AbATPPRT isotopologues were fitted to Eq. (9). In Eqs. […] While kcats for [^13C,^15N]AbHisGS and [^2H,^13C,^15N]AbHisGS are marginally lower than for unlabelled AbHisGS and [^15N]AbHisGS, the overlapping nature of most data points in Fig. 1c disagrees with distinguishable heavy-enzyme kinetic isotope effects on kcat (^HEkcat). […] This was further probed by pre-steady-state kinetics under multiple-turnover conditions. The AbHisGS reaction had been shown not to have a burst of product formation, which is reproduced here for unlabelled AbHisGS, whose traces overlap with those for [^2H,^13C,^15N]AbHisGS (Supplementary Fig. 5). S5 Supplementary Figure 4 Substrate saturation curves for unlabelled AbATPPRT with AbHisGS purified from cultures grown in M9 and M9 with high cell density compared with previously published data (reproduced here) for unlabelled AbATPPRT with AbHisGS purified from cultures grown in LB. For the M9 and M9 high cell density curves, all data points are shown for two independent measurements, except for the previously published LB curves, where data are the mean of two independent measurements. Lines are best fit of the data to equation (2): solid line for M9 high cell density curves, long-dashed line for M9 curves, and short-dashed line for previously published LB curves. Supplementary Figure 5 Rapid kinetics of PRATP formation at 25 °C by unlabelled AbHisGS and [2H,13C,15N]AbHisGS under multiple-turnover conditions. All traces are shown for eight replicates with each isotopologue.

The subject of series [2] is O=P(O)(O)OC[C@H]1O[C@H](OP(=O)(O)OP(=O)(O)O)[C@H](O)[C@@H]1O. Description: purified protein, by the assay type. To be noted: 25.0 °C. Here is the method:
as §1

Drawing on article PMC10998830, this text covers Km, kcat and kcat/Km for one substance.

Several values for one entry are separate records, joined by “and”; a condition that tells them apart may be missing. Equal values may be shown once.

Turning to AbHisGS (Acinetobacter baumannii ACICU), in series [1], the Km was 900 ± 100 µM and 800 ± 100 µM and 590 ± 30 µM; the kcat is 0.38 s⁻¹ and 0.34 s⁻¹; the kcat/Km is 420 M⁻¹ s⁻¹ and 580 M⁻¹ s⁻¹. Further, in series [2], the Km is 540 ± 40 µM and 330 ± 10 µM and 420 ± 20 µM; the kcat is 0.38 s⁻¹ and 0.34 s⁻¹; the kcat/Km was 700 M⁻¹ s⁻¹ and 1020 M⁻¹ s⁻¹ and 810 M⁻¹ s⁻¹.

As usually defined, the Km is the substrate concentration at which the rate is half of its maximum. One may read the kcat as the number of substrate molecules converted per active site and unit of time at saturation. The kcat/Km is the turnover number divided by the Michaelis constant.
